This note sets out measurements from article PMC7190278 (Cell, 2020).

In assay [1] the target is T1, HA-tagged human NPM2 (nucleoplasmin 2) (human, UniProt Q86SE8 1-214).
T1 sequence (looked up): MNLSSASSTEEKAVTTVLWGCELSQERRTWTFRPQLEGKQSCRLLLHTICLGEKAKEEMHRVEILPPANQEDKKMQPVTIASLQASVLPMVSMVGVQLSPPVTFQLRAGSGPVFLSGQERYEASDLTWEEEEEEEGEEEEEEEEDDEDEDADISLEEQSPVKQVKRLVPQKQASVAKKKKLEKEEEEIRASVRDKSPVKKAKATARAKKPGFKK
The experiment in a line: pull-down.

Another assay addresses HA-tagged human HIRA (human, UniProt P54198 1-1017). As to the kind of experiment: pull-down.

Where no end group is shown, it is not given here. [ ]: non-standard residue; d: D form. pS = N[C@@H](COP(=O)(O)O)C(=O)O

HA-tagged human HIRA, sequence (P54198 whole entry): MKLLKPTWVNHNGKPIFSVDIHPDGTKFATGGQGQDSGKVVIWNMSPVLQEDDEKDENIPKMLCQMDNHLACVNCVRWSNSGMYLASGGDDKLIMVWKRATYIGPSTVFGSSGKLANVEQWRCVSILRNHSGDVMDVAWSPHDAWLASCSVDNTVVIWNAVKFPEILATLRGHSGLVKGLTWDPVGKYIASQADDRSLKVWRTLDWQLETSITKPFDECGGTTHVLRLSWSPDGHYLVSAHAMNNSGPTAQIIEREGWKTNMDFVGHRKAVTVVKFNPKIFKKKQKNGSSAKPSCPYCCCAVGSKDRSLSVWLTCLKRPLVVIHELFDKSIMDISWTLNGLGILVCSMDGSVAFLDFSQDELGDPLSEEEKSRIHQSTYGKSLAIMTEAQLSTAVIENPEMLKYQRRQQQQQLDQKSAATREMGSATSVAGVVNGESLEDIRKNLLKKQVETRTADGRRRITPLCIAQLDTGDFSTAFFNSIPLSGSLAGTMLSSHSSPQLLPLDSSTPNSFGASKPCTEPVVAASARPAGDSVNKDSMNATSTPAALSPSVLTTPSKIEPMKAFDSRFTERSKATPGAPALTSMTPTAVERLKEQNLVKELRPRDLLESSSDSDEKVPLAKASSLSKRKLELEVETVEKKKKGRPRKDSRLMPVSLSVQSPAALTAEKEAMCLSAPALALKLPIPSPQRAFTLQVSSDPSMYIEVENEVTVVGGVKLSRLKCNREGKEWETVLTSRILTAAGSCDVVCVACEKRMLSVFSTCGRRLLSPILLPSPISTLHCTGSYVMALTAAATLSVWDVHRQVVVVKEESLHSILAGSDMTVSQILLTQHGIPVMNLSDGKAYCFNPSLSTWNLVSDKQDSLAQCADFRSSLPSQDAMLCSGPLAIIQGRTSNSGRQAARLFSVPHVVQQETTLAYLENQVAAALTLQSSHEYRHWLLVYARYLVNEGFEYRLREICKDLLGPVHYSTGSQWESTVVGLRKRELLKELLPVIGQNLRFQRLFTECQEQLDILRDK

B1: Protamine 1 (P1), wild type, not phosphorylated (peptide, UniProt P02319 1-51, looked up)
chain: MARYRCCRSKSRSRCRRRRRRCRRRRRRCCRRRRRRCCRRRRSYTIRCKKY
As for B1, the binding result in assay [1] is listed as “binds”.

B2: Protamine 1 (P1) S9A S43A double mutant (peptide, UniProt P02319 1-51, looked up)
chain: MARYRCCRAKSRSRCRRRRRRCRRRRRRCCRRRRRRCCRRRRAYTIRCKKY
Take B2: the binding result in assay [1] was “binds”.

B3: Protamine 1 (P1) S9A, not phosphorylated (peptide, UniProt P02319 1-51, looked up)
chain: MARYRCCRAKSRSRCRRRRRRCRRRRRRCCRRRRRRCCRRRRSYTIRCKKY
In the case of B3, the binding result in assay [1] is “binds”.

B4: Protamine 1 (P1) S43A, not phosphorylated (peptide, UniProt P02319 1-51, looked up)
chain: MARYRCCRSKSRSRCRRRRRRCRRRRRRCCRRRRRRCCRRRRAYTIRCKKY
As for B4, the binding result in assay [1] is on record as “binds”.

B5: Protamine 1 (P1) S9A, phosphorylated by SRPK1 (peptide, UniProt P02319 1-51, looked up)
chain: MARYRCCRAKSRSRCRRRRRRCRRRRRRCCRRRRRRCCRRRR[pS]YTIRCKKY
modifications: cysteine pairing not given here
Regarding B5, the binding result (in assay [1]; in the assay with HA-tagged human HIRA) was “binds” in each case.

B6: Protamine 1 (P1) S43A, phosphorylated by SRPK1 (peptide, UniProt P02319 1-51, looked up)
chain: MARYRCCR[pS]KSRSRCRRRRRRCRRRRRRCCRRRRRRCCRRRRAYTIRCKKY
modifications: cysteine pairing not given here
As for B6, the binding result (in assay [1]; with HA-tagged human HIRA) was “binds” in each case.

B7: Protamine 1 (P1), wild type, phosphorylated by SRPK1 (peptide, UniProt P02319 1-51, looked up)
chain: MARYRCCR[pS]KSRSRCRRRRRRCRRRRRRCCRRRRRRCCRRRR[pS]YTIRCKKY
modifications: cysteine pairing not given here
Regarding B7, in assay [1], the binding result is given as “binds”.
